The values below come from article PMC2194227.

Assay [1] has as its target mutant mCD1d cytoplasmic tail peptide (…), tyrosine substituted for alanine (mouse). As to the kind of experiment: SPR. On the technique in general: In SPR one partner is held on a chip, and binding of the other changes the refractive index at the surface.
Assay [2] deals with WT mCD1d cytoplasmic tail peptide (…) (mouse). As to the kind of experiment: SPR.

“adaptor protein complex 3 (AP-3) purified from pig brain cytosol”: the figures for the equilibrium dissociation constant (Kd) in assay [1] and in assay [2] were 2.63 µM and 0.54 µM, respectively.

One may read the Kd as the concentration at which binding is half-saturated. Low readings indicate higher affinity, high ones lower affinity.
